{"source": "patent US10117886B2", "about": "“Hyaluronidase and a low density second PEG layer on the surface of therapeutic-encapsulated nanoparticles to enhance nanoparticle diffusion and circulation” (priority 2014, dated 2018)", "molecules": {"B1": {"name": "free PH20: recombinant human hyaluronidase PH20 obtained from Halozyme, Inc, unconjugated (protein, UniProt P38567 36-490, looked up)", "Hyaluronidase PH-20": "LNFRAPPVIPNVPFLWAWNAPSEFCLGKFDEPLDMSLFSFIGSPRINATGQGVTIFYVDRLGYYPYIDSITGVTVNGGIPQKISLQDHLDKAKKDITFYMPVDNLGMAVIDWEEWRPTWARNWKPKDVYKNRSIELVQQQNVQLSLTEATEKAKQEFEKAGKDFLVETIKLGKLLRPNHLWGYYLFPDCYNHHYKKPGYNGSCFNVEIKRNDDLSWLWNESTALYPSIYLNTQQSPVAATLYVRNRVREAIRVSKIPDAKSPLPVFAYTRIVFTDQVLKFLSQDELVYTFGETVALGASGIVIWGTLSIMRSMKSCLLLDNYMETILNPYIINVTLAAKMCSQVLCQEQGVCIRKNWNSSDYLHLNPDNFAIQLEKGGKFTVRGKPTLEDLEQFSEKFYCSCYSTLSCKEKADVKDTDAVDVCIADGVCIDAFLKPPMETEEPQIFYNASPSTLS"}}, "key": {"[1]": {"system": "4T1 tumors", "assay": "Antitumor efficacy in mouse 4T1 syngeneic breast tumor model", "type": "in vivo", "conditions": "2 mg/kg DOX; (MST treated/MST control −1)×100", "experimental": "Efficacy of the nanoparticles produced in Example 2 was evaluated in a mouse 4T1 syngeneic breast tumor model, in which the host BALB/c mouse is immune-competent, and the tumor growth and metastatic spread of 4T1 cells closely mimic human breast cancer. Female BALB/c mice at 6 weeks were ordered and within a one-week stay, 50 μL of 1×10^7 4 T1 cells/mL in PBS was injected at the mammary fat pad on the right flank of the mice. Tumor size was calculated using V=0.5×width^2×length.\nThe nanoparticles with encapsulated DOX produced in Example 2 were used to treat tumors in a mouse 4T1 syngeneic breast tumor model BALB/c mice. The mice were randomly assigned into 4 groups and injected with saline, free DOX in saline, DOX-PLGA-PEG-NPs and DOX-PLGA-PEG-PH20-NPs (PH20 activity of DOX-PLGA-PEG-PH20-NPs is 500 U/mouse) at 2 mg/kg mice of DOX at 9, 11, 14, 17, 20 days after inoculation of 4T1 cells in the mice. The tumors reached a size of 150-250 mm^3 at day 9 before treatment. Tumor sizes were monitored throughout the whole study (FIG. 14A). The survival rate was studied based on the number of mice in each group that survived over time. MST (day) was defined as the time at which half of the mice had died.\nThe percentage ILS (%) was calculated using the following equation: ILS (%)=[(MST of treated group/MST of control group) −1]*100. […]"}, "[2]": {"conditions": "free PH20, cited from earlier work"}, "[3]": {"system": "pericellular HA layer around PC3 cells", "assay": "Degradation of pericellular HA layer around PC3 cells by free PH20", "type": "cell-based, human", "conditions": "1000 U of free PH20 for 1 h"}, "[4]": {"system": "pericellular HA matrix of 4T1 cells", "assay": "Degradation of pericellular HA of 4T1 cells (HA staining, RBC exclusion assay)", "type": "cell-based, mouse", "experimental": "The nanoparticles produced in Example 2 were tested on tumor cell line 4T1, which synthesizes HA and forms a layer of HA matrix around the cells. 4T1 cells were maintained in a RPMI-1640 medium (ATCC) containing 10% fetal bovine serum in 5% CO2 in an incubator at 37° C. 4T1 cells were cultured on round glass coverslips in a 12-well plate for one day to reach 70% confluency before treatment with the nanoparticles. DiD-labeled PLGA-PEG-NPs (no PH20 activity) and DiD-labeled PLGA-PEG-PH20-NPs (conjugated 10 U/mL PH20 activity) were used for this test. The amount of nanoparticles in all samples was equalized via fluorescence intensity. […]\nThe 4T1 cells were then washed and fixed and observed under a confocal microscope (Olympus IX81, 60×, C.A.=80 μm) with 405 nm and 635 nm lasers for DAPI and DiD respectively. […] The total fluorescence intensity of DiD was quantified via Image J and averaged by the number of cells.\nRBCs were collected fresh from mice and washed three times with PBS before being resuspended in 2% formaldehyde in PBS for fixation of the RBCs overnight at room temperature. […] The areas of exclusion (no RBCs) were quantified through ImageJ. […]"}}, "note": "Structures can show the parent of a compound that is named as a salt. Where two headings read alike, the source gives them in different places."}
{"molecule": "COc1cccc2c1C(=O)c1c(O)c3c(c(O)c1C2=O)C[C@@](O)(C(=O)CO)C[C@@H]3O[C@H]1C[C@H](N)[C@H](O)[C@H](C)O1", "note": "[Free DOX, Doxorubicin Hydrochloride salt]", "values": [{"measurement": "percentage increased life span ILS (%)", "setting": "[1]", "result": 10, "unit": "%"}]}
{"molecule": "B1", "values": [{"measurement": "circulation half-life", "setting": "[2]", "result": "less than 3 min"}, {"measurement": "circulation half-life", "setting": "[2]; listed as PH20", "result": 3, "unit": "min"}, {"measurement": "degradation of pericellular HA layer", "setting": "[3]", "result": "sufficient to degrade the pericellular HA layer around PC3 cells"}, {"measurement": "amount of HA around 4T1 cells, RBC exclusion", "setting": "[4]; 1000 U/mL of PH20, 2 h, 37° C.", "result": "reduced to a low level that could no longer block RBCs"}, {"measurement": "degradation of pericellular HA layer around 4T1 cells", "setting": "[4]; 3000 U of free PH20 for 1 h", "result": "sufficient to degrade the pericellular HA layer around 4T1 cells"}]}
